Results published in patent US20210388105A1 (ELPISCIENCE SUZHOU BIOPHARMA, published 2021).
Where a chain is given by its changes, count along the chain named.

T1: human CD39 (full length, on cells) (human, UniProt P49961 1-510)
T1 construct: Recombinant on CHOK1-hCD39 cells or natural on SK-MEL-28, SK-MEL-5 and MOLP-8 cells; the cell line is named under assay; also called hCD39; ENTPD1
T1 sequence: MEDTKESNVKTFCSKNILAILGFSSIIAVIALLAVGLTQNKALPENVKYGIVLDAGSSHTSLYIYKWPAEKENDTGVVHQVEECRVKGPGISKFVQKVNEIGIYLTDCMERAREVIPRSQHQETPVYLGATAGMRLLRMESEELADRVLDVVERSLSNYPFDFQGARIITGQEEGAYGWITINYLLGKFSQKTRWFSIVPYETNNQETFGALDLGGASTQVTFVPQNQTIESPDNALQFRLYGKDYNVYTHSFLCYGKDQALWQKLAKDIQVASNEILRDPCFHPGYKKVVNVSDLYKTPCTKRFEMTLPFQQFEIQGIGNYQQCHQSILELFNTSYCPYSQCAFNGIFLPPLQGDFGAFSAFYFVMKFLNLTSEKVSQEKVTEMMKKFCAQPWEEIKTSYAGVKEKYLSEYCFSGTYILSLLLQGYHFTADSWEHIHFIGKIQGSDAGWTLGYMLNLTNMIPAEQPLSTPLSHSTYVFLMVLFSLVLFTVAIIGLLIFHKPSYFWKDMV

T2: mouse CD39 (full length, on CHOK1-mCD39 cells) (mouse, UniProt P55772 1-510)
T2 construct: whole, on cells
T2 sequence (looked up): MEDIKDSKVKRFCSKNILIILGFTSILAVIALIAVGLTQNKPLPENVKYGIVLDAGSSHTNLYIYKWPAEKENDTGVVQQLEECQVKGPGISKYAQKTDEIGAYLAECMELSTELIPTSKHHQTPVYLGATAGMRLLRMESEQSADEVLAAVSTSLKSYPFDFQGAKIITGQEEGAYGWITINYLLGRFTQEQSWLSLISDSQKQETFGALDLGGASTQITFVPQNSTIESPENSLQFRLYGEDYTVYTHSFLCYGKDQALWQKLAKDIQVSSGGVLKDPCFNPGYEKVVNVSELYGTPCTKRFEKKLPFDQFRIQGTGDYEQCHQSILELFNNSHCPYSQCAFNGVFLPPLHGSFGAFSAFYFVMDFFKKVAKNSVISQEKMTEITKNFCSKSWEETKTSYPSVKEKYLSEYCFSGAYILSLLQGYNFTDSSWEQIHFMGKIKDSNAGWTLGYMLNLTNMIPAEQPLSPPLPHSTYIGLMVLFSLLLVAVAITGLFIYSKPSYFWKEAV

T3: cynomolgus CD39 (full length, on CHOK1-cynoCD39 cells) (cynomolgus monkey, UniProt A0A7N9DGH8 1-510)
T3 construct: whole, on cells; also called cCD39
T3 sequence: T1 sequence with V47I, F94Y, V221I, I230T, I329V, K368N, A391S, F489V, T490I

B1: mAb13 (antibody, V domains shown)
VH: QIQLVQSGPELKKPGETVKISCKASGYTFTNYGMNWVKQAPGKGLRWMGLINTYTGEPTYADDFKDRFAFSLETSASTAFLQINNLKDEDMATYFCARKGIYYDYVWFFDVWGAGTTVTVSS
VL: DIQMTQSPSSLSTSLGGKVSITCKASQDINRYIAWYQHKPGKGPRLLIHYTSTLLPGIPSRFSGSGSGRDYSFSISNLEPEDIATYFCLQYSNLLTFGGGTKLEIK
notes: mouse hybridoma antibody
B2: mAb35 (antibody, V domains shown)
VH: EVRLQQSGAELVKPGASVKLSCTASGFNIEDTYVHWMKQRPEQGLEWIGRIDPAIDNSKYDPKFQGKATITAVSSSNTAYLQLSSLTSEDTAVYYCALYDGYNVYAMDYWGQGTSVTVSS
VL: DIVMTQAAFSNPVTLGTSASISCRSSKNLLHSNGITYLYWYLQRPGQSPQLLIYRASTLASGVPNRFSGSESGTDFTLRISRVEAEDVGVYYCAQLLELPHTFGGGTKLEIK
notes: mouse hybridoma antibody
B3: mAb34 (antibody, V domains shown)
VH: EIQVQQSGPELVKPGASVKVSCKASGYSFTDYNMYWVKQSHGKSLEWIGFIDPYNGYTSYNQKFKGKATLTIDKSSSTAFMHLNSLTSEDSAVYYCAIYGYDDAYYFDYWGQGTTLTVSS
VL: QIVLTQSPAIMSASPGEKVTITCSATSSVSYMHWFRQKPGTSPKLWIYSTSNLASGVPARFSGSGSGTSYSLTISRMAAEDAATYYCQQRITYPFTFGSGTKLEIT
notes: mouse hybridoma antibody
B4: c14 (antibody, V domains shown)
VH: EVKLEESGGGLVQPGGSMKLSCVASGFTFSKYWMNWVRQSPEKGLEWVAEIRLKSNKYGTHYAESVKGRFTISRDDSKNNVYLQMNNLRPEDTGIYYCTTQLDLYWFFDVWGAGTTVTVSS
VL: DIVMTQSPAILSVTPGDRVSLSCRASQSISDYLHWYQQKSHESPRLLIKYASQSISGIPSRFSGSGSGSNFTLSINSVEPEDVGVYFCQNGHSLPLTFGAGTKLELR
notes: variable regions of mAb14 on human IgG constant regions; also called chimeric antibody c14
B5: hu14.H2L2 (antibody, V domains shown)
VH: EVQLVESGGGLVKPGGSLRLSCAASGFTFSKYWMNWVRQSPGKGLEWVGEIRLKSNKYGTHYAESVKGRFTISRDDSKNTLYLQMNSLKTEDTAVYYCTTQLDLYWFFDVWGQGTTVTVSS
VL: EIVLTQSPATLSLSPGERATLSCRASQSISDYLHWYQQKPGQSPRLLIYYASQSISGIPARFSGSGSGTDFTLTISSLEPEDFAVYFCQNGHSLPLTFGGGTKLEIK
notes: humanized c14
B6: hu14.H3L1 (antibody, V domains shown)
VH: B5 VH with G49A, L81V
VL: B5 VL with S43A, F87Y
notes: humanized c14
B7: hu14.H3L3 (antibody, V domains shown)
VH: B5 VH with G49A, L81V
VL: B5 VL with L13V, L78V
notes: humanized c14
B8: hu14.H3L4 (antibody, V domains shown)
VH: B5 VH with G49A, L81V
VL: B5 VL with L4M, L13V, A19V, L78V
notes: humanized c14
B9: hu14.H4L4 (antibody, V domains shown)
VH: B5 VH with L18M, G49A, L81V
VL: B5 VL with L4M, L13V, A19V, L78V
notes: humanized c14
B10: hu14.H2L4 (antibody, V domains shown)
VH: B5 VH
VL: B5 VL with L4M, L13V, A19V, L78V
notes: humanized c14
B11: hu14.H2L1 (antibody, V domains shown)
VH: B5 VH
VL: B5 VL with S43A, F87Y
notes: humanized c14
B12: hu14.H4L2 (antibody, V domains shown)
VH: B5 VH with L18M, G49A, L81V
VL: B5 VL
notes: humanized c14
B13: hu14.H1L3 (antibody, V domains shown)
VH: B5 VH with S40A
VL: B5 VL with L13V, L78V
notes: humanized c14
B14: hu14.H1L4 (antibody, V domains shown)
VH: B5 VH with S40A
VL: B5 VL with L4M, L13V, A19V, L78V
notes: humanized c14
B15: hu14.H3L2 (antibody, V domains shown)
VH: B5 VH with G49A, L81V
VL: B5 VL
notes: humanized c14
B16: hu14.H2L3 (antibody, V domains shown)
VH: B5 VH
VL: B5 VL with L13V, L78V
notes: humanized c14

molecular target: T1, human CD39 (full length, on cells); assay: FACS, CHOK1-hCD39 cells
Excerpt: (§1) FACS were used to determine binding of the antibodies to cell lines expressing CD39 naturally (SK-MEL-28) or recombinantly (CHOK1-hCD39, CHOK1-cynoCD39, and CHOK1-mCD39), or with cells lacking CD39 expression (CHOK1-blank) as a negative control.
(§2) CHOK1-hCD39, CHOK1-cCD39, CHOK1-mCD39 and CHOK1-blank cells were maintained in culture medium according to ATCC procedure. Cells were collected and re-suspended in blocking buffer at a density of 3×10⁶ cells/ml. Cells were transferred to 96 well FACS plates at 100 μl/well (3×10⁵ cells/well), the plates were centrifuged and washed twice with FACS buffer (PBS, 1% FBS, 0.05% Tween-20). 4-folds serial dilution of anti-CD39 antibodies were prepared in FACS buffer starting from 30 μg/ml. Reference antibody 9-8B and mouse/human control IgG were used as positive and negative controls, respectively. Cells were re-suspended in 100 μL/well diluted antibodies, and the plates were incubated at 4° C. for 60 min. […] The plates were washed with FACS buffer, and cells were re-suspended in 100 μL/well of PBS. Cells were then analyzed with FACSVerse™ and mean fluorescence intensity were determined. Full binding curves were generated on the CD39 expressing cells by testing a range of antibody concentrations. Apparent affinity was determined for each antibody using Prism software.

EC50 [nM]	Binder
30	B1
5.2	B2
4.4	B3

molecular target: T1, human CD39 (full length, on cells); assay: FACS, MOLP-8 cells
Procedure: (§3) Similarly, human CD39 expressing cells SK-MEL-5, SK-MEL-28 or MOLP-8, were incubated with a gradient concentration of anti-CD39 antibodies for 30 minutes at 4° C. Cells were washed 3 times using FACS buffer and next incubated with fluorescence labelled secondary antibody (goat-anti-mouse IgG or goat anti-human IgG) for 30 minutes at 4° C. Cells were washed 3 times and then re-suspended in FACS buffer and analyzed by flow cytometry analysis on BD Celesta. Data plotted and analyzed using GraphPad Prism 8.02.
(§4) The binding affinity of the humanized antibodies for c14 was determined by FACS using MOLP-8 cells expressing human CD39, using similar methods as described in Example 3.2.

EC50 [nM]	Binder
17.5	B4
6.91	B5
5.95	B6
6.09	B7
6.05	B8
5.46	B9

molecular target: T1, human CD39 (full length, on cells); assay: FACS on MOLP-8 cells, MFI
Procedure: as §3, §4

binding result	Binder
binds	B10
binds	B11
binds	B12
binds	B13
binds	B14
binds	B15
binds	B16

molecular target: T1, human CD39 (full length, on cells); assay: cell-based or functional assay

SK-MEL-28 cell based ATPase inhibition % at 10 nM [%]	Binder
43	B1
56	B2
72	B3

molecular target: T2, mouse CD39 (full length, on CHOK1-mCD39 …); assay: FACS, CHOK1-mCD39 cells
Excerpt: as §1, §2

Binder	binding result
B1	no binding (tested: 30 µg/ml highest concentration)
B2	no binding (tested: 30 µg/ml highest concentration)
B3	no binding (tested: 30 µg/ml highest concentration)

molecular target: T3, cynomolgus CD39 (full length, on …); assay: FACS, CHOK1-cynoCD39 cells
Excerpt: as §1, §2

EC50 [nM]	Binder
21	B1
5.3	B2
3.1	B3

molecular target: T1, human CD39 (full length, on cells); assay: FACS, SK-MEL-28 cells
Procedure: as §1, §3

EC50 [nM]	Binder
11	B1
1.8	B2
4.7	B3
